Source: patent US11898183B2, “Programmed microorganisms to attenuate a disease” (priority 2020, dated 2024)

system: pathway specific substrates; experiment: Enzyme functionality of pathway enzyme homologs and fusion constructs in lysed E. coli cell extracts, product by HPLC; assay type: biochemical, E. coli BL21; conditions: protein expressed in E. coli, lysed cell extract, pathway specific substrate, HPLC
Procedure: As per one of the possible implementations of the present disclosure, two proteins—cinnamate-4-hydroxylate (C4H) and 4-coumaroyl CoA-ligase (4CL) were expressed as one fusion protein. Also, other two proteins which were expressed as one fusion protein were hydroxycinnamoyl-CoA quinate hydroxycinnamoyltransferase (HCT) and p-coumaroyl quinate 3′-hydroxylase (HCTC3H). The fusion gene and the corresponding fusion protein was prepared using the following method. […] The enzyme fusion constructs were made for the selected genes (Table 5). Pathway genes and the fusion constructs were individually cloned in E. coli expression vector pET28+ under T7 promoter and transformed in E. coli BL21 cells. Recombinant bacterial cells were induced with IPTG and enzyme functionality was tested with pathway specific substrates (Table 5) using lysed E. coli cell extracts. HPLC analysis was carried out to quantify the product formation and in turn shortlisting of efficient enzymes for functional pathway assembly towards Etoposide in E. coli.
The E. coli transformants were grown overnight at 37° C. in 1 ml of M9 minimal media containing ampicillin (100 mg/1), in 96-well format. The next day, 150 μl of each culture was inoculated into 3 ml M9 minimal media containing ampicillin (100 mg/1), IPTG 0.1 mM in 24-well format, and incubated at 30° C. and 200 rpm for ˜20 hours. The following day, cells were spun down and pellets were resuspended in 100 μl of lysis buffer containing 10 mM Tris-HCl pH 8, 5 mM MgCl2, 1 mM CaCl2) and complete mini protease inhibitor EDTA-free (3 tablets/100 ml) (Hoffmann-La Roche, Basel, Switzerland) and frozen at −80° C. for at least 15 minutes to promote cell lysis. Pellets were thawed at room temperature and 50 μl of DNase mix (1 μl of 1.4 mg/ml DNase in H2O (˜80000 u/ml), 1.2 μl of MgCl2 500 mM and 47.8 μl of 4×PBS buffer solution) was added to each well. Plates were shaken at 500 rpm for 5 min at room temperature to allow degradation of genomic DNA. Plates were spun down at 4000 rpm for 30 min at 4° C. and six μl of the lysates were used in in vitro using appropriate substrates for enzymes as per Table 6. In each case, the resulting compounds were measured by HPLC. Results were analysed in comparison with the lysates expressing the corresponding controls (the empty plasmid). […]

Molecule | enzyme activity | enzyme activity (in words)
SDH Juglans regia: Secoisolariciresinol dehydrogenase (SDH) from Juglans regia (protein, listed as Juglans regia) MNGTSSLLAPIAKRLAGKVALITGGASGIGESTARLFAEQGAKVIIADVQDELGFSVSQDKSINGAISYIHCDVTSESDVQNAVNTAVSKHGKLDIMFNTAGCTGQNKASILDHEQKDYKTVFDVNVLGSFLGAKHAAKVMIPVKRGTILFTASCVTESHGLASHSYTASKHAVVGLTKNLCVELGQYGIRVNCISPYGAATPLFLKGMGIDKKEKAEEILSSAANLKGPVLEAGDLAEAALFLASEESKYVSVLNLVVDGGYSATNVAFTETIQKFFT | 99% | –
2-ODD Nitrospira moscoviensis: 2-oxoglutarate/Fe(II)-dependent dioxygenase (2-ODD) from Nitrospira moscoviensis (protein, listed as Nitrospira moscoviensis) MVSNMAMGITEAVDRAVAALDVDRLHREYWEQNEFLVIRQFLPRAFVEEVLVPQAQGVKTELNRNYIPGHKKGGSVSYYTVRRRAPLFLDLYRSDSFRAFLDRLVDAKLLLCPENDPHSCALYYYTEPGDHIGFHYDTSYYKGARYTILMGLVDRSTQCKLVCELFKDHPTKAPQRLELITEPGDMVIFNGDKLWHAVTPLGEGEERIALTMEYVTNPEMGAFKRLYSNLKDSFAYFGLKTVFKQALAKKSS | 96% | –
OMT Sinopodophyllum hexandrum: O-methyltransferase 3 (OMT) from Sinopodophyllum hexandrum (protein, Depicts the nucleic acid sequence encoding O-methyltransferase 3 (OMT) of Sinopodophyllum hexandrum, O-methyltransferase 3 (OMT) from Sinopodophyllum hexandrum) MEMAPTMDLEIRNGNGYGDSGEELLAAQAHIYNHIFNFISSMALKCAVELNIPEILHNHQPKAVTLSELVQALQIPQAKSACLYRLLRILVHSGFFAITKIQSEGDEEGYLPTLSSKLLLKNHPMSMSPCLLGLVNPTMVAPMHFFSDWFKRSDDMTPFEATHGASLWKYFGETPHMAEIFNEAMGCETRLAMSVVLKECKGKLEGISSLVDVGGGTGNVGRAIAEAFPNVKCTVLDLPQVVGNLKGSNNLEFVSGDMFQFIPPADVVFLKWILHDWNDEECIKILKRCKEAIPSKEEGGKLIIIDMVVNDHNKGSYESTETQLFYDLTLMALLTGTERTETEWKKLFVAAGFTSYIISPVLGLKSIIEVFP | 99% | –
CYP82D Panax ginseng: CYP82D from Panax ginseng (protein, Panax ginseng) METFLAQLYSTTTIAALFVLLVLYYFSPWTRINKKNVAPEAGGGWPIIGHLHLLGGSKLPHLVFGSMADKYGPIFTVRLGVQRSLVVSSWEMVKDIFTTNDVIVSGRPKFLAAKHLSYNYAMFGFSPYGSFWLELRKITSLQLLSNRRLELLKHVRVSEMEISMRQLYKLWSEKKNGSGRVLMDMKKWFGELNLNVTFRMVAGKRYFGGGAASNDEEARRCRRVVREFFRLLGVVVVADSLPFLRWLDLGGYERAMKETAREMDSIVSVWLEEHRIKSDSSGDDANMEQDFMDVMLSAVKNVDLCGFDAHTVIKATCMVIISSGTDTTTVELTWALCLLLNNRHVLKKAQEELDNVVGKQRRVKESDLNNLIYLQAIVKETLRLYPAGQLGGQREFSDDCTVGGYHVPKRTRLVVNLWKLHRDPRIWSDPTEFRPERFLERHKEIDVKGQHFELIPFGAGRRVCPGITFGLQMFHLVLASLLHGFDISTPSDAPVDMAEGAGLTNAKITPLEILIAPRLSPSLYE | around 93% | –
CCoAOMT Eleocharis dulcis: Caffeoyl CoA O-methyltransferase (CCoAOMT) from Eleocharis dulcis (protein, Depicts the nucleic acid sequence encoding Caffeoyl CoA O-methyltransferase (CCoAOMT)) MSTTTTTQTKTETQSQTGAQNGAEQQTRHSEVGHKSLLQSDALYQYILETSVYPREPECMKELRDITAKHPWNLMTTSADEGQFLNLLLKLIGAKKTMEIGVYTGYSLLATALAIPEDGTILAMDINRENYELGLPVIEKAGVAHKIDFREGPALPVLDQLIEDPANLGSFDFIFVDADKDNYLNYHKRLIELVKVGGVIGYDNTLWNGSVVLPADAPMRKYIRYYRDFVLELNKALAADPRIEISQLPVGDGITLCRRVK | 61% | –
CYP71 Cinnamomum micranthum: CYP71 from Cinnamomum micranthum (protein, Depicts the nucleic acis sequence encoding CYP71 of Cinnamomum micranthum) MALLLSLLFFASALIFLLKLNGQRANKTDVPPSPPKLPLIGNLHQLGTLPHRSLRSLAGKYGPLMLLYLGRIPTLIVSSEEMAEQIMKTHDLIFASRPSITAAKELLYGCTDLAFASYGEYWRQVRKMCVLELLSIKRVNSFRSIMEEEVGLMIERISQSSSTGAAVNLAELFLSLTGGTIARAALGKKYEGEAEEGRNKYADLVKELHALLGAFSVGDYFPSLAWVDVVTGLHGKLKRNSRELDRFLDQVIEHHLMRPLDGCDVGEHTDLVDVMLQVQKDSNRDIHLTRDNIKAIILDMFSAGTDTTALTLEWVMAELAKHPNVMKKAQGEVRRVVDVKANISEEHLCQLNYMKSIIKETLRLHPPAPLLVPRESTTNVKIQNFHIPPKTRVFINAYAIGRDPTSWENPEEFLPERFANNSVDFKGQDFQFIPFGAGRRGCPGLSFAITSLELALANLLYWFDWELPQGVTEEDLDMSEALGITVHKKLPLYLVPKNHFS | 94% | –
CCoAOMT Chamaecyparis formosensis: Caffeoyl CoA O-methyltransferase (CCoAOMT) from Chamaecyparis formosensis (protein, Depicts the nucleic acid sequence of Caffeoyl CoA O-methyltransferase (CCoAOMT) of Chamaecyparis formosensis) MATVEATKDSTQQVSRHQEVGHKSLLQSDALYQYILETSVYPREPEPMRELREITAKHPWNLMTTSADEGQFLHLLLKLINAKNTMEIGVYTGYSLLSTALALPDDGKILAMDINRENYELGLPVIQKAGVAHKIDFREGPALPVLDQMLENKEMHGSFDFIFVDADKDNYLNYHKRLIDLVKIGGVIGYDNTLWNGSVVAPPDAPMRKYVRYYRDFVIELNKALAADPRIEISQIPVGDGITLCRRII | 95% | –
DIRPLR Linum usitatissimum: Bifunctional pinoresinol-lariciresinol reductase (DIRPLR) from Linum usitatissimum (protein, listed as Linum usitatissimum) MGRCRVLVVGGTGYIGKRIVKASIEHGHDTYVLKRPETGLDIEKFQLLLSFKKQGAHLVEASFSDHESLVRAVKLVDVVICTVSGAHSRSLLLQLKLVEAIKEAGNVKRFIPSEFGMDPARMGDALEPGRETFDLKMVVRKAIEDANIPHTYISANCFGGYFVGNLSQLGPLTPPSDKVTIYGDGNVKVVYMDEDDVATYTIMTIEDDRTLNKTMYFRPPENVITHRQLVETWEKLSGNQLQKTELSSQDFLALMEGKDVAEQIVIGHLYHIYYEGCLTNFDIDADQDQVEASSLYPEVEYTRMKDYLMIYL | – | desirable enzyme activity
2-ODD Nitrospira japonica: 2-oxoglutarate/Fe(II)-dependent dioxygenase (2-ODD) from Nitrospira japonica (protein, Depicts the nucleic acid sequence of 2-oxoglutarate/Fe(II)-dependent dioxygenase (2-ODD) of Nitrospira japonica, 2-oxoglutarate/Fe(II)-dependent dioxygenase (2-ODD) from Nitrospira japonica) MMGGAMTTQTLDTIAEAVDQAVARLDFDRLHREYWEQNEFLVIPQFLDRAMVEEWLVPQAQGVKGDLNRNYIPGHKKGGSVSYYTVMEKAPRFLDLYRSQVFIEFLSRLSHAKLRLCPDNDPHSCALYYYTEPGDHIGFHYDTSYYKGSRYTILMGLVDQSTHCKLVCELFKDDPVRPSKRLELITQPGDMVIFNGDKLWHAVTPLGPNEERIALTMEYVTNPDMGTFKRLYSNLKDSFAYFGLRAVFKRALSLPRR | 88% | –
CYP719 Cinnamomum micranthum: CYP719 from Cinnamomum micranthum (protein, Depicts the nucleic acid sequence encoding CYP719 of Cinnamomum micranthum) MEAIWTAVAIGIAAAVLMAFRGRQRQRLSRKPTQWPPGPTRLPLIGNMHQILLKGGDPFHVAINKLAQVYGPLMTVWFGTRQPTIIVSDHNLVWEVLVSKSADYAAREIPITLKPSLADFRTIVSSNAGPLWHSLRRGLQNGAIGPHSLSLQAPFQESDMAQMINNMIKEANLNGGVVKPFPHIRRAIIKLLARICFGCDFSDEEFDATMDFMVEEALRYSDDSRILDTFPPARFLPSVKRAVMQMEKVKLRLMECIGRPLDSPLPPTCYAHFLLSQSFPREVAIFSIFELFLLGVDSTGSTTMWGLGLLMQNQEAQQKLYQEIREHASCNEKGVVKVEELGKLEYLQAVAKETMRMKPIAPLAVPHQAARDTTLDGLHVAEGTTVLANLYALHYDPKVWDEPERFKPERFLESSKEFLGKRGQYSFLPFGAGMRACAGMEVGKLQLPFAICNLVNAFNWSNVVEKEAPKLIEGFSFILSMKTPLEARIVPRGI | – | highest enzyme activity
